We go through three molecules from US9273342B2, “Methods and systems for evaluating and predicting the reactivity of monooxygenase enzymes” (University of Rochester, priority 2011, dated 2016).

Substitutions are numbered along the chain they refer to. “And” between values parts separate entries of the source, which are not always exact repeats. Identical values can stand only once.

Common to all, as to type: biochemical
Assay [1] can be described thus: Fingerprinting: demethylation activity on methoxy probes 1-5, Purpald colorimetric assay. The note with it: formaldehyde formation, FIG. 5A. As to the method:
To test the viability of compounds I-5 as probes, the fatty acid hydroxylase CYP102A1 (SEQ ID NO 1) from Bacillus megaterium and […] engineered variants thereof (SEQ ID NO 3, SEQ ID NO 4, SEQ ID NO 5, SEQ ID NO 6, SEQ ID NO 8, SEQ ID NO 11, SEQ ID NO 12, SEQ ID NO 14, SEQ ID NO 15) were fingerprinted. […] Parallel reactions with 1-5 were carried out using these P450s in purified form and a NADPH cofactor regeneration system containing a […] (PTDH).
We investigated the utility of these probes for high-throughput profiling of a large library of engineered monooxygenase variants. […] The P450 libraries were expressed in 96-well plates (DH5a cells) and screened against probes 1-5 in parallel to acquire a fingerprint for each functional P450 variant occurring in these libraries. Reactions with the probes (1 mM, 60 min) were carried out using cell lysate in the presence of the phosphite/PTDH cofactor regeneration system, and probe activity was quantified based on absorbance at 550 nm after 60-min incubation with Purpald (30 mM). […] This example illustrates how probes of general formula II such as compound 1-5 could be used for fingerprinting a large library of monooxygenases in a high throughput manner.
Expression and Fingerprinting of P450 Libraries in 96-Well Plates. 96-deep well plates containing 400 μL LB medium (100 mg ampicillin L-1) per well were inoculated with single colonies from the P450 libraries. The total number of screened P450 variants was about 10,000. In each plate, 8 wells were inoculated with the parent enzyme FL#62. […] P450 demethylation activity on probe 1-5 was measured in parallel reactions with the aid of a Beckman Coulter Multimek 96 automated pipettor and a TECAN Infinity plate reader. […] After incubation for 1 hour at room temperature, plates were added with 50 μL 2 M NaOH containing 150 mM Purpald and the absorbance at 550 nm measured using the plate reader. The measured demethylation activity of each P450 variant on the five probes was then normalized to the activity of the parent enzyme FL#62 (SEQ ID NO 15) from the same plate. […]

A short description of assay [2]: Monooxygenase activity on artemisinin (ART), total turnovers by HPLC after benzoyl chloride derivatization. The note with it: 0.5 mM ART, 1 μM P450 variant; mol hydroxylation products/mol enzyme. From the text: Additional 5,000 FL#62-derived variants were produced by simultaneous active-site mutagenesis and subjected to high throughout fingerprinting as described in Example 2. From the acquired fingerprint data, 259 functionally diverse variants (i.e., with a unique fingerprint) were isolated according to the procedure described in Example 2 and combined with the previously isolated 261 variants (Example 2), to yield a collection of 520 functionally diverse, fingerprinted monooxygenases. […] The ART oxygenation activity of the training set P450s was characterized by LC-MS analysis of reactions with ART and each of these variants and quantified in terms of total turnovers (TTN). […] The fingerprints of the training set P450s (both ART-reactive and ART-unreactive) were then correlated with the measured ART activities (TTN values) by multiple linear regression (MLR) analysis, where ART activity is the dependent variable, Y, and the five components of their fingerprints (corresponding to the normalized activities on probes 1-5) are five independent variables (x1, x2, x3, x4, x5) potentially correlated with Y. This process yielded best-fit regression coefficients for the training set and a candidate fingerprint-based model (Y=0.44x1+0.52x2+0.44x3+0.72x4+0.47x5) predictive of ART-reactivity. […]

Assay [3] in a line: Regio- and stereoselectivity (site-selectivity) of ART hydroxylation, product distribution by HPLC. The text has this:
Additional 5,000 FL#62-derived variants were produced by simultaneous active-site mutagenesis and subjected to high throughout fingerprinting as described in Example 2. From the acquired fingerprint data, 259 functionally diverse variants (i.e., with a unique fingerprint) were isolated according to the procedure described in Example 2 and combined with the previously isolated 261 variants (Example 2), to yield a collection of 520 functionally diverse, fingerprinted monooxygenases. From this pool, twenty monooxygenases were randomly isolated to serve as the training set for generating a fingerprint model predictive of ART-reactivity and ranking the members of the monooxygenase library according to this reactivity property, as schematically illustrated in FIG. 13. The ART oxygenation activity of the training set P450s was characterized by LC-MS analysis of reactions with ART and each of these variants and quantified in terms of total turnovers (TTN). […] The fingerprints of the training set P450s (both ART-reactive and ART-unreactive) were then correlated with the measured ART activities (TTN values) by multiple linear regression (MLR) analysis, where ART activity is the dependent variable, Y, and the five components of their fingerprints (corresponding to the normalized activities on probes 1-5) are five independent variables (x1, x2, x3, x4, x5) potentially correlated with Y. This process yielded best-fit regression coefficients for the training set and a candidate fingerprint-based model (Y=0.44x1+0.52x2+0.44x3+0.72x4+0.47x5) predictive of ART-reactivity. Using this model, the remaining P450s in the 520-member collection of fingerprinted P450s were ranked (from highest to lowest predicted ART-reactivity). The 50 top-ranking variants as well as the 20 bottom-ranking variants were then tested experimentally in order to validate the predictions.
Measurement of Monooxygenase Activity on Artemisinin (ART). These isolated ART hydroxylation products were used as standards to generate calibration curves for quantifying ART-hydroxylation activity of FL#62 and the other monooxygenases. This activity was measured as total turnovers via quantification of the hydroxylation products from enzymatic reactions via derivatization with benzoyl chloride followed by HPLC analysis. Briefly, after the enzymatic reaction (0.5 mM ART, 1 μM P450 variant (purified or in cell lysate); 2 μM […], 100 μM NADP^+, 50 mM phosphoric acid), the mixture was added with 9-fluorenone as internal standard (0.5 mM) and extracted with dicholoromethane (0.2 mL). After removing the solvent, the residue was added with 0.1 mL dichloromethane, benzoyl chloride (5 equiv.), and DMAP (10 equiv.) for 3 hours at room temperature. The derivatized products (benzoyl esters) were analyzed using an Agilent 1200 UPLC. Analytical condition: Agilent XDB-C18 column (1.8 um, 4.4×50 mm); UV wavelength: 230 nm; Solvent A: 1% trifluoroacetic acid in deionized H2O; Solvent B: 1% formic acid in acetonitrile. gradient condition: 0-1 min: 20% B; 1-8 mins: 20% B to 90% B; 8-10 mins: 90% B; […]: 90% B to 20% B; 10.3-11.3 min: 20% B. Flow rate: 0.8 mL/min. The area under the curve (AUC) corresponding to the ART hydroxylated products were normalized to the internal standard AUC and used to quantify these products using the calibration curves. Total turnover numbers were calculated from number of mol hydroxylation products/mol enzyme. […]

B1: FL#41: engineered CYP102A1 variant used as reference P450 for fingerprint normalization, SEQ ID NO 3 (protein)
chain: MTIKEMPQPKTFGELKNLPLLNTDKPVQALMKIADELGEIFKFEAPGRVTRYLSSQRLIKEACDESRFDKNLSQALKFVRDFAGDGLATSWTHEKNWKKAHNILLPSFSQQAMKGYHAMMVDIAVQLVQKWERLNADEHIEVPEDMTRLTLDTIGLCGFNYRFNSFYRDQPHPFITSMVRALDEAMNKLQRANPDDPAYDENKRQFQEDIKVMNDLVDKIIADRKASGEQSDDLLTHMLNGKDPETGEPLDDENIRYQIITFLIAGHETTSGLLSFALYFLVKNPHVLQKAAEEAARVLVDPVPSYKQVKQLKYVGMVLNEALRLWPTAPAFSLYAKEDTVLGGEYPLEKGDELMVLIPQLHRDKTIWGDDVEEFRPERFENPSAIPQHAFKPFGNGQRACIGQQFALHEATLVLGMMLKHFDFEDHTNYELDIKETLTLKPEGFVVKAKSKKIPLGGIPSPSTEQSAKKVRKKAENAHNTPLLVLYGSNMGTAEGTARDLADIAMSKGFAPQVATLDSHAGNLPREGAVLIVTASYNGHPPDNAKQFVDWLDQASADEVKGVRYSVFGCGDKNWATTYQKVPAFIDETLAAKGAENIADRGEADASDDFEGTYEEWREHMWSDVAAYFNLDIENSEDNKSTLSLQFVDSAADMPLAKMHGAFSTNVVASKELQQPGSARSTRHLEIELPKEASYQEGDHLGVIPRNYEGIVNRVTARFGLDASQQIRLEAEEEKLAHLPLAKTVSVEELLQYVELQDPVTRTQLRAMAAKTVCPPHKVELEALLEKQAYKEQVLAKRLTMLELLEKYPACEMKFSEFIALLPSIRPRYYSISSSPRVDEKQASITVSVVSGEAWSGYGEYKGIASNYLAELQEGDTITCFISTPQSEFTLPKDPETPLIMVGPGTGVAPFRGFVQARKQLKEQGQSLGEAHLYFGCRSPHEDYLYQEELENAQSEGIITLHTAFSRMPNQPKTYVQHVMEQDGKKLIELLDQGAHFYICGDGSQMAPAVEATLMKSYADVHQVSEADARLWLQQLEEKGRYAKDVWAG
B1: in assay [1], the “probe activity on probes 1-5 (in words)” value is listed as “minimal yet detectable activity on all five probes”.

B2: Wild-type CYP102A1: fatty acid hydroxylase CYP102A1 from Bacillus megaterium, SEQ ID NO 1 (protein, listed as Bacillus megaterium)
chain: B1 chain with A88F
As for B2, the “probe activity on probes 1-5 (in words)” value in assay [1] was “no activity on three out of the five probes”.

B3: FL#62: engineered variant of P450 monooxygenase CYP102A1, SEQ ID NO 15, parent of the libraries (protein)
chain: MTIKEMPQPKTFGELKNLPLLNTDKPVQALMKIADELGEIFKFEAPGRVTRYLSSQRLIKEACDESRFDKNLSQALKFARDSVGDGLATSWTHEKNWKKAHNILLPSFSQQAMKGYHAMMVDIAVQLVQKWERLNADEHIEVSEDMTRLTLDTIGLCGFNYRFNSFYRDQPHPFIISMVRTLDEVMNKLQRANPDDPVYDENKRQCQEDIKVMNDLVDKIIADRKARGEQSDDLLTQMLNGKDPETGEPLDDGNISYQIITFLIAGHETTSGLLSFALYFLVKNPHVLQKVAEEAARVLVDPVPSYKQVKQLKYVGMVLNEALRLWPTAPAFSLYAKEDTVLGGEYPLEKGDEVMVLIPQLHRDKTIWGDDVEEFRPERFENPSAIPQHAFKPFGNGQRACIGQQFALHEATLVLGMMLKHFDFEDHTNYELDIKETLTLKPEGFVVKAKSKKIPLGGIPSPSTEQSAKKVRKKAENAHNTPLLVLYGSNMGTAEGTARDLADIAMSKGFAPQVATLDSHAGNLPREGAVLIVTASYNGHPPDNAKQFVDWLDQASADEVKGVRYSVFGCGDKNWATTYQKVPAFIDETLAAKGAENIADRGEADASDDFEGTYEEWREHMWSDVAAYFNLDIENSEDNKSTLSLQFVDSAADMPLAKMHGAFSTNVVASKELQQPGSARSTRHLEIELPKEASYQEGDHLGVIPRNYEGIVNRVTARFGLDASQQIRLEAEEEKLAHLPLAKTVSVEELLQYVELQDPVTRTQLRAMAAKTVCPPHKVELEALLEKQAYKEQVLAKRLTMLELLEKYPACEMKFSEFIALLPSIRPRYYSISSSPRVDEKQASITVSVVSGEAWSGYGEYKGIASNYLAELQEGDTITCFISTPQSEFTLPKDPETPLIMVGPGTGVAPFRGFVQARKQLKEQGQSLGEAHLYFGCRSPHEDYLYQEELENAQSEGIITLHTAFSRMPNQPKTYVQHVMEQDGKKLIELLDQGAHFYICGDGSQMAPAVEATLMKSYADVHQVSEADARLWLQQLEEKGRYAKDVWAG
Regarding B3, in assay [1], the “probe activity on probes 1-5 (in words)” value is “high activity on all the probes”. The “total turnovers (TTN) for ART hydroxylation” value in assay [2] is 340 TTN and 339 TTN. Besides, in assay [3], the “selectivity for the desired site ((S)-C7 ART hydroxylation, regio- and stereoselectivity)” value was 83%. Besides, in assay [3] (ART hydroxylation products), the “C6a-hydroxy-ART, share in product ratio C7(S):C7(R):C6a” value is on record as 7; the “C7(R)-hydroxy-ART, share in product ratio C7(S):C7(R):C6a” value came out at 10; the “C7(S)-hydroxy-ART, share in product ratio C7(S):C7(R):C6a” value was 83. Moreover, the “site-selectivity value for (S)-C7 ART hydroxylation” value in assay [3] (fraction used for the fingerprint-site reactivity correlation) came to 0.83.
